Measurements from patent US20220168438A1 (Daiichi Sankyo, published 2022).

T1: human CLDN6 (human, UniProt P56747 1-220)
T1 construct: Four-transmembrane protein; It was expressed on 293T cells from human CLDN6/pCMV-Entry (OriGene) and on CHO-K1 cells by cDNA transfection; it was endogenous in the NTERA-2 lysate used for immunoprecipitation; also called claudin-6; human claudin-6
T1 sequence: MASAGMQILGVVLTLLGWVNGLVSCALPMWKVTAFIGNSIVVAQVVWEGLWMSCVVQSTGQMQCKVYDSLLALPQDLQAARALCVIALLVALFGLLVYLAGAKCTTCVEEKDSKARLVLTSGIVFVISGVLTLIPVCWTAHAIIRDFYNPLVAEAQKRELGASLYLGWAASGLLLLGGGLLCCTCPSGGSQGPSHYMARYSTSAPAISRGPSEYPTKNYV

T2: human CLDN9 (human, UniProt O95484 1-217)
T2 construct: Expressed on 293T cells from human CLDN9/pCMV6-Entry (OriGene); Transfection was confirmed with an anti-FLAG antibody
T2 sequence: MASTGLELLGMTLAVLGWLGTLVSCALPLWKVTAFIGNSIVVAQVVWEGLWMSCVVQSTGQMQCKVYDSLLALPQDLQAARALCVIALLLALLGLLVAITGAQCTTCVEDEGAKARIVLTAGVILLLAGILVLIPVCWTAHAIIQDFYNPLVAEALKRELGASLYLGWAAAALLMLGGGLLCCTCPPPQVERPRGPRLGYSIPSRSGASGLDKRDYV

T3: human CLDN3 (human, UniProt O15551 1-220)
T3 construct: whole, on cells
T3 sequence (looked up): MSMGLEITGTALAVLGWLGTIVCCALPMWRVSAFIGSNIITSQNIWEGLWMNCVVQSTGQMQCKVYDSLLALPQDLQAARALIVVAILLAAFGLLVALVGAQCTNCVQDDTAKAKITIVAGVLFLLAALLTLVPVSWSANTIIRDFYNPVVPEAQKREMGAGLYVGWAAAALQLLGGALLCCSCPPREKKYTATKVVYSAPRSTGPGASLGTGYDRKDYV

T4: human CLDN4 (human, UniProt O14493 1-209)
T4 construct: whole, on cells
T4 sequence (looked up): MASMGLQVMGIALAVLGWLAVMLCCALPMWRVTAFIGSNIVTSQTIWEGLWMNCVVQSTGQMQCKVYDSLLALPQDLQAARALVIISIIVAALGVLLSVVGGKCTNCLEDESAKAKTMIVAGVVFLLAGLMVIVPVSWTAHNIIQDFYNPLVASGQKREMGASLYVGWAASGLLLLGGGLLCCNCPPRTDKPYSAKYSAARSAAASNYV


Columns and labels:
human CLDN6 [1] = target: T1, human CLDN6; experiment: flow cytometry on transiently transfected 293T cells, 0.8-100 nM
Method: (§1) The binding activity of the humanized anti-CLDN6 antibody produced in Example 10 to human CLDN6 and its family molecules, CLDN3, CLDN4, and CLDN9, was evaluated by using a flow cytometry method. Used were 293T cells transiently transfected in the same manner as in Example 7-1. To cells into which a human CLDN6 or human CLDN9 gene had been transferred, the humanized anti-CLDN6 antibody H1L1, H2L2, H1L3, H2L4, or H3L3, or a human IgG1 control antibody (Calbiochem) was added and suspended to a final concentration of 100 nM, 20 nM, 4 nM, or 0.8 nM, and the resultant was left to stand at 4° C. for 30 minutes. To cells into which a human CLDN3 or human CLDN4 gene, or an empty vector had been transferred, the humanized anti-CLDN6 antibody H1L1, H2L2, H1L3, H2L4, or H3L3 was added and suspended to a final concentration of 100 nM, and the resultant was left to stand at 4° C. for 30 minutes. The cells were washed with Dulbecco's phosphate buffered saline (Sigma-Aldrich Co. LLC) containing 5% fetal bovine serum (Hyclone) (hereinafter, referred to as 5% FBS-containing PBS), and FITC AffiniPureF (ab′)2 Fragment Goat Anti-Human IgG (H+L) (Jackson ImmunoResearch Laboratories Inc.) 150-fold diluted with 5% FBS-containing PBS was then added thereto, and the cells were suspended and left to stand at 4° C. for 30 minutes. After washing with 5% FBS-containing PBS, detection was carried out by using a flow cytometer (FC500; Beckman Coulter, Inc.). Data analysis was carried out by using FlowJo (Tree Star, Inc.), and mean fluorescence intensity (MFI) of FITC, which indicates the amount of the binding antibody, was calculated. […] In each graph in FIG. 13, the abscissa represents antibody concentrations and the ordinate represents MFI.

human CLDN9 [2] = target: T2, human CLDN9; experiment: as above
Method: as §1

human CLDN3 = target: T3, human CLDN3; experiment: flow cytometry on transiently transfected 293T cells
Method: (§2) Binding activity of the mouse anti-CLDN6 antibodies produced in Example 6 to human CLDN6 and its family molecules, CLDN3, CLDN4, and CLDN9, was evaluated by using a flow cytometry method. Human CLDN3/pCMV6-Entry, human CLDN4/pCMV6-Entry, human CLDN6/pCMV-Entry, human CLDN9/pCMV6-Entry, or pCMV6-Entry purchased from OriGene Technologies, Inc. was transiently transferred into 293T cells (Thermo Fisher Scientific, HCL4517) by using Lipofectamine 2000 (Thermo Fisher Scientific), and the cells were cultured under conditions of 37° C. and 5% CO₂ overnight, and then a cell suspension was prepared. The transfected 293T cell suspension was centrifuged to remove the supernatant, and a mouse anti-CLDN6 antibody (clone number: B1 or C7) or a mouse IgG1 control antibody (R&D Systems, Inc.) was then added and suspended to a final concentration of 30 μg/mL, 10 μg/mL, 3.3 μg/mL, or 1.1 μg/mL, and the resultant was left to stand at 4° C. for 1 hour. The cells were washed twice with Dulbecco's phosphate buffered saline (Sigma-Aldrich Co. LLC) containing 5% fetal bovine serum (Hyclone) (hereinafter, referred to as 5% FBS-containing PBS), and FLUORESCEIN-CONJUGATED GOAT IGG FRACTION TO MOUSE IGG (WHOLE MOLECULE) (MP Biomedicals, Inc.) 500-fold diluted with 5% FBS-containing PBS was then added thereto, and the cells were suspended and left to stand at 4° C. for 1 hour. After washing twice with 5% FBS-containing PBS, detection was carried out by using a flow cytometer (FC500; Beckman Coulter, Inc.). Data analysis was carried out by using FlowJo (Tree Star, Inc.). To confirm each transfection, the cells were permeabilized with 0.25% Tween 20-containing PBS, and then a mouse anti-FLAG antibody (Sigma-Aldrich Co. LLC) was used. […] In each graph in FIG. 11, the ordinate represents FITC fluorescence intensity indicating the amount of the binding antibody and the abscissa represents antibody concentrations.
(§3) The binding activity of the humanized anti-CLDN6 antibody produced in Example 10 to human CLDN6 and its family molecules, CLDN3, CLDN4, and CLDN9, was evaluated by using a flow cytometry method.

human CLDN4 = target: T4, human CLDN4; experiment: as above
Method: as §2, §3

human CLDN9 [3] = target: T2, human CLDN9; experiment: flow cytometry on transiently transfected 293T cells, 1.1-30 µg/mL
Method: Binding activity of the mouse anti-CLDN6 antibodies produced in Example 6 to human CLDN6 and its family molecules, CLDN3, CLDN4, and CLDN9, was evaluated by using a flow cytometry method. Human CLDN3/pCMV6-Entry, human CLDN4/pCMV6-Entry, human CLDN6/pCMV-Entry, human CLDN9/pCMV6-Entry, or pCMV6-Entry purchased from OriGene Technologies, Inc. was transiently transferred into 293T cells (Thermo Fisher Scientific, HCL4517) by using Lipofectamine 2000 (Thermo Fisher Scientific), and the cells were cultured under conditions of 37° C. and 5% CO₂ overnight, and then a cell suspension was prepared. The transfected 293T cell suspension was centrifuged to remove the supernatant, and a mouse anti-CLDN6 antibody (clone number: B1 or C7) or a mouse IgG1 control antibody (R&D Systems, Inc.) was then added and suspended to a final concentration of 30 μg/mL, 10 μg/mL, 3.3 μg/mL, or 1.1 μg/mL, and the resultant was left to stand at 4° C. for 1 hour. […] In each graph in FIG. 11, the ordinate represents FITC fluorescence intensity indicating the amount of the binding antibody and the abscissa represents antibody concentrations.

human CLDN6 [4] = target: T1, human CLDN6; experiment: immunoprecipitation from NTERA-2 cell lysate with 218B1, SDS-PAGE, mass spectrometry of the 18 kDa band
Method: 2×10⁷ NTERA-2 cells were collected and washed twice with PBS. The cells were collected by using a cell scraper, and centrifuged at 1500 rpm for 5 minutes. After the supernatant was removed, the cells were resuspended in 2 mL of the lysis buffer, and treated at 4° C. for 30 minutes. The resultant was centrifuged (13000 rpm, 20 minutes, 4° C.) to prepare a cell lysate. Protein G Sepharose/lysis buffer (50% slurry; 180 μL) was added to the cell lysate, and the resultant was rotated at 4° C. for 30 minutes and then centrifuged at 4° C. for 1 hour, and the supernatant was collected. The 218B1 antibody (about 9 μg) was added to the supernatant, and the resultant was rotated at 4° C. for 30 minutes, to which Protein G Sepharose/lysis buffer (50% slurry; 180 μL) was then added, and the resultant was rotated at 4° C. for 1 hour. The Protein G Sepharose was washed six times with the lysis buffer (1 mL), and then resuspended in 1×SDS sample buffer. After the suspension was treated at 100° C. for 5 minutes, the solution was collected as a sample for SDS-PAGE. SDS-PAGE was carried out in the same manner as in 2-2), and the electrophoresis gel was stained with CBB. The part corresponding to 18 kDa was cut out of the electrophoresis gel, and subjected to mass spectrometry.

human CLDN6 [5] = target: T1, human CLDN6; experiment: FACS on CHO-K1 cells transfected with human claudin-6 cDNA

binding result (human CLDN6 [1]) | binding result (human CLDN9 [2]) | binding result (human CLDN9 [3]) | binding result (human CLDN6 [4]) | binding result (human CLDN6 [5]) | Binder | binding result (human CLDN3) | binding result (human CLDN4)
binds | binds |  |  |  | humanized anti-CLDN6 antibody H2L4 (antibody, human IgG1, kappa, L234A L235A, V domains shown, Human IgG1 LALA heavy chain and human kappa light chain; also called H2L4 antibody; hH2 + hL4) VH: EVQLVQSGAEVKKPGASVKVSCKTSGYTFTEYTMHWVRQAPGKSLEWMGGVNPNSGDTSYAQKFQGRVTITADTSTSTAYMELSSLRSEDTAVYYCARPGGYDVGYYAMDYWGQGTLVTVSS VL: DIQMTQSPSSLSASVGDRVTITCRASQDINNYLNWYQQKPGGAVKLLIYFTSRLHSGVPSRFSGSGSGTDYTLTISSLQPEDFATYYCQQGNTLPWTFGGGTKVEIKR | no binding (tested: 100 nM) | no binding (tested: 100 nM)
binds | binds |  |  |  | humanized anti-CLDN6 antibody H2L2 (antibody, human IgG1, kappa, L234A L235A, V domains shown, Human IgG1 LALA heavy chain and human kappa light chain; also called H2L2 antibody; hH2 + hL2) VH: EVQLVQSGAEVKKPGASVKVSCKTSGYTFTEYTMHWVRQAPGKSLEWMGGVNPNSGDTSYAQKFQGRVTITADTSTSTAYMELSSLRSEDTAVYYCARPGGYDVGYYAMDYWGQGTLVTVSS VL: DIQMTQSPSSLSASVGDRVTITCRASQDINNYLNWYQQKPGKAVKLLIYFTSRLHSGVPSRFSGSGSGTHYTLTISSLQPEDFATYYCQQGYPLPWTFGQGTKVEIKR | no binding (tested: 100 nM) | no binding (tested: 100 nM)
 |  | binds | binds |  | mouse anti-CLDN6 antibody B1 (antibody, V domains shown, Mouse monoclonal antibody purified from hybridoma 218B1 culture supernatant; also called B1 antibody; 218B1) VH: EVQLQQSGPELVKPGASVKISCKTSGYTFTEYTMHWVQQSHGKSLEWIGGVNPNSGDTSYNQKFKGKATLTVDKSSSTAYMELRSLTSEDSAVYYCARPGGYDVGYYAMDYWGQGTSVTVSS VL: DIQMTQTASSLSASLGDRVTISCRASQDINNYLNWYQQKPDGTVKLLIYFTSRLHSGVPSRFSGSGSGTHYSLTITNLEQEDIATYFCQQGYPLPWTFGGGTKLEIK | no binding (tested: 30 µg/mL (highest concentration tested)) | no binding (tested: 30 µg/mL (highest concentration tested))
 |  | binds |  | binds | mouse anti-CLDN6 antibody C7 (antibody, V domains shown, Mouse monoclonal antibody purified from hybridoma 218C7 culture supernatant; also called C7 antibody; 218C7) VH: EVQLQQSGPELVKPGASVKISCKTSGYTFTEYTMHWVQQSHGKSLEWIGGVNPNSGDTSYNQKFKGKATLTVDKSSSTAYMELRSLTSEDSAVYYCARPGGYDVGYYAMDYWGQGTSVTVSS VL: DIQMTQTASSLSASLGDRVTISCRASQDINNYLNWYQQKPDGTVKLLIYSTSRLHSGVPSRFSGSGSGTHYSLTITHLEQEDIATYFCQQGYPLPWTFGGGTKLEIK | no binding (tested: 30 µg/mL (highest concentration tested)) | no binding (tested: 30 µg/mL (highest concentration tested))
